The source of these data is US20260224724A1, “GLYCOSYNTHASE VARIANTS FOR ANTIBODY-DRUG CONJUGATE ENGINEERING” (OBI Pharma, Inc., priority 2022, published 2026).

In one test the test system is Herceptin-GlcNAc. As to the kind of experiment: Transglycosylation of glycan-oxazoline to Herceptin-GlcNAc, monitored by HPLC. In kind it is biochemical. Particulars: for 1N-G2S2 (hemi-glycosylated) / 2N-G2S2 (fully glycosylated) / GlcNAc(F) (unreacted acceptor) / 1N-Glycan / 2N-Glycan / GlcNAc(F): acceptor Herceptin-GlcNAc; for 1N-G2S2 (hemi-glycosylated) / 2N-G2S2 (fully glycosylated) / GlcNAc(F) (unreacted acceptor): NSCT-oxa, best conditions (20:1 EndoSz-D234M, 150:1 EndoSd-D232M). The procedure: (§1) In general procedures, mAb-GlcNAc/mAb-GlucNAc-F (5 mg) was incubated with glycan-oxa with molar ratio 1:20 and 1:150 (mAb-GlcNAc:NSCT-oxa) by EndoSz-D234M (167 μg) or EndoSd-D232M (1002 μg), respectively, at 30° C. for 20 minutes in a MOPS buffer (50 mM, pH 6.7), to final volume 500 μL. There were some slight modifications according to experiment purposes and designs (see result section). HLPC was employed to monitor the transglycosylation efficiency.
(§2) The glycosynthase activity was analyzed by HPLC (Waters e2695) using 2.1×150 mm UPLC Glycoprotein Amide Column (Waters) under two different buffers (Buffer A, ddH2O/0.3% v/v HFIP (1,1,1,3,3,3-Hexafluoro-2-propanol), 0.1% v/v TFA; Buffer B, ACN, 0.3% v/v HFIP, 0.1% v/v TFA) with the gradient as Table 4.
(§3) After ensuring the baseline stability by injection water blank, the process was started by 2 μL sample injection. In the process duration (29 mins), the flow rate was 0.2 mL/min under the column temperature of 65° C. and sample tray temperature of 5° C.

A further test has as its system Herceptin-GlcNAc-F. Briefly: Transglycosylation of glycan-oxazoline to fucosylated Herceptin-GlcNAc-F, monitored by HPLC. The test is classed as biochemical. To be noted: for GlcNAc(F) (unreacted acceptor) / 1N-G2S2 (hemi-glycosylated) / 2N-G2S2 (fully glycosylated, Herceptin-2N-G2S2F): NSCT-oxa, best conditions; for 1N-G2S2 (hemi-glycosylated) / 2N-G2S2 (fully glycosylated, Herceptin-2N-G2S2F) / 1N-Glycan / 2N-Glycan / GlcNAc(F): acceptor Herceptin-GlcNAc-F. The procedure: as §1, §2, §3

B1: EndoSd-D232M: D232M glycosynthase mutant of EndoSd from Streptococcus dysgalactiae subsp. Dysgalactiae, SEQ ID NO 1 (protein, listed as Streptococcus dysgalactiae)
chain: MGTILGTHHDSLISVKAEEKITQVSQTSTSIDDLHYLSENSKKEFKEELSKEKVPEKVKEILSKAQQANKQAQELAEMKVPDKIPMKPLNGPLYGGYFRTWHDKTSDPLEKDKVNSMGELPKEVDLAFVFHDWTKDYSLFWKELATKHVPKLNKQGTRVIRTIPWRFLAGGDNSGIAEDASKYPNTPEGNKALAKAIVDEYVYKYNLDGLDVMIEHDSIPKVNGEASDENLKRSIDVFEEIGKLIGPKGADKSRLFIMDSTYMADKNPLIERGAPYIDLLLVQVYGSQGEQGEFQNDTKSVTKTPEERWQGYSKYIRPEQYMIGFSFYEEKAGSGNLWYDINARKDEDTANGINDDITGTRAERYARWQPKTGGVKGGIFSYAIDRDGVAHQPKQIAEKDKQSVKNNRPLISEITDNIFHSNYSVSKTLKTVMLKDKAYDLIDEKDFPDKALREAVMAQVGTRKGDLERFNGTLRLDNPAIQSLEGLNKFKKLAQLDLIGLSRIIKLDQSVLPANMKPGKDPLETVLETYKKNGKEEPAIIPPVSLTVSGLTGLKELDLSGFDRETLAGIDAATLTSLEKVDISDNKLDLAPKTENRQIFDVMLSTVNNNAGISEQSIKFDNQKPAGNYPQTYGATNLQLPVRQEKIDLQHQLLFGTITNQGTLINSEADYKTYRNQKIAGRNFVDPDYPYNNFKVSHDNYTVKVTDSTLGTTTDKMLATDKEETYKVDFFSPTDKTKAVHTAKVIVGDEKTMMVNLAEGATVIKSENDENAQKVFNGIMEYNPLSFNNKSSIIFEIKDPSLAKYWRLFNDSSKDKKDYIKEAKLEVFTGQLNAEADVKTILEKPDNWVTVSTYSGEEKVFSHSLDNISAKYWRVTVDNKKDQYGYVSLPELQILGYPLPNADTIMKTVTVAKELSQQKDKFPQQLLDESTAKEAVVEASLNSKLFDTGVINTNVEALKNVVDECLAYEKNKETAFKATEDYRAAVNGVKAESVTVEEMAQLKDLIGKAAHLNSKIDAKLADREYDKDLLGLIGELTNITRTVKSFVKHHHHHH
Consider B1, for which the “Relative transglycosylation activity of EndoSd mutants” value with Herceptin-GlcNAc (EndoSd-D232M set to 100%, NSCT-oxa donor, best conditions) was 100%. Also, in the test with Herceptin-GlcNAc, the “1N-G2S2 (hemi-glycosylated)” value is listed as 2.11%, the “2N-G2S2 (fully glycosylated)” value was found to be 97.88% and the “GlcNAc(F) (unreacted acceptor)” value is listed as 0%. Also, in the test with Herceptin-GlcNAc (molar ratio 20:1 (NSCT-oxa/antibody), final condition of EndoSz-D234M), the Herceptin-2N-G2S2 generated is 46.06%. For the same molecule, in the test with Herceptin-GlcNAc-F, the “GlcNAc(F) (unreacted acceptor)” value was 0%; the “1N-G2S2 (hemi-glycosylated)” value is on record as 3.17%; the “2N-G2S2 (fully glycosylated, Herceptin-2N-G2S2F)” value stood at 94.75%.

B2: EndoSz-D234M: D234M glycosynthase mutant of EndoSz from Streptococcus equi subsp. Zooepidemicus Sz105, SEQ ID NO 2 (protein, listed as Streptococcus equi)
chain: MVAILAAQHDSLIRVKAEDKLVQTSPSVSAIDALHYLSENSKKEFKEELSKVEKAQPEKLKEIVSKAQQADKQAKTLAEMKVPEKIPMKPLKGPLYGGYFRTWHDKTSDPAEKDKVNSMGELPKEVDLAFVFHDWTKDYSLFWQELATKHVPTLNKQGTRVIRTIPWRFLAGGDHSGIAEDAQKYPNTPEGNKALAKAIVDEYVYKYNLDGLDVMIERDSIPKVNKEESKEGIERSIQVFEEIGKLIGPKGADKSRLFIMDSTYMADKNPLIERGAPYIDLLLVQVYGTQGEKGGFDNANHKAVDTMEERWESYSKYIRPEQYMVGFSFYEEKANSGNLWYDVNVEDDTNPNIGSEIKGTRAERYAKWQPKTGGVKGGIFSYGIDRDGVAHPKKNGPKTPDLDKIVKSDYKVSKALKKVMENDKSYELIDQKDFPDKALREAVIAQVGSRRGNLERFNGTLRLDNPDIKSLEGLNKLKKLAKLELIGLSQITKLDSSVLPENIKPTKDTLVSVLETYKNDDRKEEAKAIPQVALTISGLTGLKELNLAGFDRDSLAGIDAASLTSLEKVDLSSNKLDLAAGTENRQILDTMLATVTKHGGVSEKTFVFDHQKPTGLYPDTYGTKSLQLPVANDTIDLQAKLLFGTVTNQGTLINSEADYKAYQEQEIAGHRFVDSSYDYKAFAVTYKDYKIKVTDSTLGVTDHKDLSTSKEETYKVEFFSPINSTKPVHEAKIVVGEEKTMMVNLAEGATIIGGDADPTNAKKVFDGLLNNDTTTLSTSNKASIIFELKEPGLVKHWRFFNDSKISKADYIKEAKLEAFVGHLEDSSKVKDSLEKSTEWVTVSDYSGEAQEFSQPLNNIGAKYWRITIDNKKSQYGYVSLPELQIIGHRLPEAATVMTTMAAAEELSQQKDKFSQEQLKELEVKVAALKAALDNKMFNADTINASFADVKAYIDKLLADAAGKKTLGKATKEAQPVATDAKEKAESENPKADHHHHHH
Take B2: the “Relative transglycosylation activity of EndoSz mutants” value in the test with Herceptin-GlcNAc (EndoSz-D234M set to 100%, NSCT-oxa donor, best conditions) was determined as 100%. Moreover, the “1N-G2S2 (hemi-glycosylated)” value with Herceptin-GlcNAc was 4.8%; in the test on Herceptin-GlcNAc-F, 4.00%. For the same molecule, the “2N-G2S2 (fully glycosylated)” value in the test on Herceptin-GlcNAc was 91.85%. In addition, the “GlcNAc(F) (unreacted acceptor)” value with Herceptin-GlcNAc turned out to be 3.35%; with Herceptin-GlcNAc-F it was 1.72%. Further, the 1N-Glycan is given as 2.58% in the test on Herceptin-GlcNAc (glycan G0, 20:1); 4.52% in the test with Herceptin-GlcNAc (glycan G2, 20:1); 6.51% in the test on Herceptin-GlcNAc (glycan M3 (40eq)); 2.45% in the test with Herceptin-GlcNAc-F (glycan type G0F); 2.64% with Herceptin-GlcNAc-F (glycan type G2F); 4.95% with Herceptin-GlcNAc-F (glycan type M3F). For the same molecule, the 2N-Glycan came to 96.50% in the test with Herceptin-GlcNAc (glycan G0, 20:1); 94.87% in the test on Herceptin-GlcNAc (glycan G2, 20:1); 92.37% in the test with Herceptin-GlcNAc (glycan M3 (40eq)); 97.55% in the test with Herceptin-GlcNAc-F (glycan type G0F); 97.14% in the test with Herceptin-GlcNAc-F (glycan type G2F); 94.44% with Herceptin-GlcNAc-F (glycan type M3F). The “GlcNAc(F)” value in the test with Herceptin-GlcNAc (glycan G0, 20:1) is recorded as 0.91%; in the test with Herceptin-GlcNAc (glycan G2, 20:1), 0.61%; in the test on Herceptin-GlcNAc (glycan M3 (40eq)), 1.11%; in the test on Herceptin-GlcNAc-F (glycan type G0F) it was 0.00%; in the test with Herceptin-GlcNAc-F (glycan type G2F), 0.21%; with Herceptin-GlcNAc-F (glycan type M3F) it was 0.62%. The “2N-G2S2 (fully glycosylated, Herceptin-2N-G2S2F)” value with Herceptin-GlcNAc-F amounted to 94.29%.
